In FireProtDB (doi:10.1016/j.bpj.2010.04.076):

Details: Bacillus subtilis (strain 168), pH 7, CD, transition: 2, reversible: yes, whole UniProt chain shown

B1: Adenylate kinase wild type, P16304 (protein)
chain: MNLVLMGLPGAGKGTQGERIVEDYGIPHISTGDMFRAAMKEETPLGLEAKSYIDKGELVPDEVTIGIVKERLGKDDCERGFLLDGFPRTVAQAEALEEILEEYGKPIDYVINIEVDKDVLMERLTGRRICSVCGTTYHLVFNPPKTPGICDKDGGELYQRADDNEETVSKRLEVNMKQTQPLLDFYSEKGYLANVNGQQDIQDVYADVKDLLGGLKK
With B1 the unfolding free energy (20 °C, GdnHCl, Phosphate buffer 10mM) was 3.34 kcal/mol and the Tm (Thermal, KH2PO4 10mM) was 48.4 °C.
